Measurements reported in US20240374746A1 (TALLAC THERAPEUTICS, published 2024).

What was measured:
[1] = molecular target: T1, human SIRP-α V1 D1 domain-6His (human, UniProt P78324 31-149); experiment: SPR (Biacore 8K), conjugate captured on Protein A chip, His-tagged SIRP-α as analyte, single cycle kinetics; pH 6.0, 25 C
T1 construct: also called Analyte A
Method: (§1) Binding of the anti-SIRP-α antibody conjugate was measured using a Biacore 8K high throughput, high-sensitivity SPR system (Cytiva, Global Life Sciences Solutions USA LLC, Marlborough, MA) equipped with S-type sensor chips. The interaction of the conjugate with SIRP-α was analyzed by flowing His-tagged SIRP-α over Protein A captured anti-SIRP-α antibody conjugate on a Biacore Series S Protein A Sensor Chip. The anti-SIRP-α antibody portion of the conjugate comprised a heavy chain comprising the sequence of SEQ ID NO:66 and a light chain comprising the sequence of SEQ ID NO:73 conjugated to CpG oligo 7-7 (SEQ ID NO: 35).
(§2) All SIRP-α analytes were injected in single cycle kinetics mode at nominal starting concentrations of 100 nM with 3-fold serial dilutions with the exception of rat SIRP-α. Higher starting concentration of 300 nM was used for assessing binding to rat SIRP-α at pH 7.4. Association times were monitored for 120 s, and dissociation times were monitored 600 s at 30 μL/min flow rate. The surfaces were regenerated with 75 mM phosphoric acid at pH1.65 for two pulses of 15 s at 30 μL/min flow rate. Experiments were done at either 25° C. or 37° C. and at pH 6.0 or 7.4. Assay buffers were 1×PBS 0.01% Tween-20 at pH 6.0 with and 1×HBS-EP+ (10 mM HEPES, pH7.4, 150 mM NaCl, 3 mM EDTA, 0.05% (v/v) Surfactant P20) at pH 7.4. All data points were collected in duplicate or greater.
(§3) The data were processed and analyzed with Biacore 8K Evaluation Software Version 4.0.8.20368 (Cytiva, Global Life Sciences Solutions USA LLC, Marlborough, MA). Reference responses from flow cell 1 were subtracted from the active responses from flow cell 2 to obtain the subtracted data (2-1). The responses from the nearest buffer blank injection were then subtracted from the reference subtracted data (2-1) to yield double-referenced data. These double-reference data were fit to a simple 1:1 Langmuir binding model with mass transport to determine the apparent association (ka) and dissociation rate constants (kd). The apparent equilibrium dissociation constant or affinity constant was then calculated based on their ratio as (KD=kd/ka).

[2] = molecular target: T2, human SIRP-α V2 D1 domain-6His (human); experiment: as above
T2 construct: also called Analyte B
T2 sequence (chain, as listed by the source limits assumed): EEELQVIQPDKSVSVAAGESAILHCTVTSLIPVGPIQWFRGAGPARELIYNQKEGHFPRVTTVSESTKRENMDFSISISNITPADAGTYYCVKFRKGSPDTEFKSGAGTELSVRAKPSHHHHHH
Method: as §1, §2, §3

[3] = molecular target: T3, Cyno SIRP-α V4 D1 domain-6His-Avi (cynomolgus, limits assumed); experiment: as above
T3 construct: also called Analyte C
T3 chain: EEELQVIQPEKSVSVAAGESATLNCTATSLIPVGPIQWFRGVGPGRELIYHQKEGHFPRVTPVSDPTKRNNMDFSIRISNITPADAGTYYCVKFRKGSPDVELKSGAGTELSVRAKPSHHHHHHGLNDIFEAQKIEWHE
Method: as §1, §2, §3

[4] = molecular target: T4, Mouse SIRP-α normal D1 domain-6His (mouse); experiment: as above
T4 construct: also called Analyte D
T4 chain: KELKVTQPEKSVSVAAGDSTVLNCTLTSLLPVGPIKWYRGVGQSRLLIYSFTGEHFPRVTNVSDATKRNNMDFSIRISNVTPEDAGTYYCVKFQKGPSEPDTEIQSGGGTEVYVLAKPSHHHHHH
Method: as §1, §2, §3

[5] = molecular target: T5, Rat SIRP-α K32-N373-ECD-6His (rat, UniProt P97710 32-373); experiment: as above
T5 construct: K32-N373 in the name counts on the natural rat protein; also called Analyte E; Rat SIRPα-ECD
T5 sequence: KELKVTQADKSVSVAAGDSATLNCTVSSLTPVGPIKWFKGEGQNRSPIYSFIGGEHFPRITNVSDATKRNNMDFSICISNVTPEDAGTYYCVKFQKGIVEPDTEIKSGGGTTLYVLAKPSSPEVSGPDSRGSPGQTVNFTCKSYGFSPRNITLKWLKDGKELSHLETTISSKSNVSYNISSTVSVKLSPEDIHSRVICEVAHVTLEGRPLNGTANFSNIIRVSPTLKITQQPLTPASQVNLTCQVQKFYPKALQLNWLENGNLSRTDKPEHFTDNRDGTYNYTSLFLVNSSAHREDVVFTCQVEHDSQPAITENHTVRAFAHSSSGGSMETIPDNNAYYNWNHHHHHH
Method: as §1, §2, §3

[6] = molecular target: T1, human SIRP-α V1 D1 domain-6His; experiment: SPR (Biacore 8K), conjugate captured on Protein A chip, His-tagged SIRP-α as analyte, single cycle kinetics; pH 6.0, 37 C
Method: as §1, §2, §3

[7] = molecular target: T2, human SIRP-α V2 D1 domain-6His; experiment: as above
Method: as §1, §2, §3

[8] = molecular target: T3, Cyno SIRP-α V4 D1 domain-6His-Avi; experiment: as above
Method: as §1, §2, §3

[9] = molecular target: T4, Mouse SIRP-α normal D1 domain-6His; experiment: as above
Method: as §1, §2, §3

[10] = molecular target: T5, Rat SIRP-α K32-N373-ECD-6His; experiment: as above
Method: as §1, §2, §3

[11] = molecular target: T1, human SIRP-α V1 D1 domain-6His; experiment: SPR (Biacore 8K), conjugate captured on Protein A chip, His-tagged SIRP-α as analyte, single cycle kinetics; pH 7.4, 25 C
Method: as §1, §2, §3

[12] = molecular target: T2, human SIRP-α V2 D1 domain-6His; experiment: as above
Method: as §1, §2, §3

[13] = molecular target: T3, Cyno SIRP-α V4 D1 domain-6His-Avi; experiment: as above
Method: as §1, §2, §3

[14] = molecular target: T4, Mouse SIRP-α normal D1 domain-6His; experiment: as above
Method: as §1, §2, §3

[15] = molecular target: T5, Rat SIRP-α K32-N373-ECD-6His; experiment: as above
Method: as §1, §2, §3

[16] = molecular target: T1, human SIRP-α V1 D1 domain-6His; experiment: SPR (Biacore 8K), conjugate captured on Protein A chip, His-tagged SIRP-α as analyte, single cycle kinetics; pH 7.4, 37 C
Method: as §1, §2, §3

[17] = molecular target: T2, human SIRP-α V2 D1 domain-6His; experiment: as above
Method: as §1, §2, §3

[18] = molecular target: T3, Cyno SIRP-α V4 D1 domain-6His-Avi; experiment: as above
Method: as §1, §2, §3

[19] = molecular target: T4, Mouse SIRP-α normal D1 domain-6His; experiment: as above
Method: as §1, §2, §3

[20] = molecular target: T5, Rat SIRP-α K32-N373-ECD-6His; experiment: as above
Method: as §1, §2, §3

T1 sequence (P78324 other isoform, or with tags, fused parts or gaps limits assumed): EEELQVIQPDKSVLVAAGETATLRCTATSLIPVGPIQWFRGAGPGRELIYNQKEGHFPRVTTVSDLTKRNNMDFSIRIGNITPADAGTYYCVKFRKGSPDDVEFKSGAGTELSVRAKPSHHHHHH

Kd [1]: < 1 pM | Kd [2]: < 1 pM | Kd [3]: 0.05 nM | Kd [4]: < 1 pM | Kd [5]: 3.8 nM | Kd [6]: < 1 pM | Kd [7]: 0.01 nM | Kd [8]: 0.1 nM | Kd [9]: 0.07 nM | Kd [10]: 8.5 nM | Kd [11]: 0.1 nM | Kd [12]: 0.23 nM | Kd [13]: 0.45 nM | Kd [14]: 0.69 nM | Kd [15]: 61.4 nM | Kd [16]: 0.28 nM | Kd [17]: 0.51 nM | Kd [18]: 0.71 nM | Kd [19]: 1.63 nM | Kd [20]: 175 nM
B1: anti-SIRP-α antibody-CpG oligonucleotide conjugate (human IgG4 heavy chain SEQ ID NO:66, light chain SEQ ID NO:73, conjugated to CpG oligo 7-7, SEQ ID NO:35) (antibody, V domains shown)
VH: EVQLVESGGGVVQPGGSLRLSCAASGFTFSSNAMSWVRQAPGKGLEWVAGISAGGSDTYYPASVKGRFTISRDNSKNTLYLQMNSLRAEDTAVYYCARETWNHLFDYWGQGTLVTVSS
VL: SYELTQPPSVSVSPGQTARITCSGGSYSSYYYAWYQQKPGQAPVTLIYSDDKRPSNIPERFSGSSSGTTVTLTISGVQAEDEADYYCGGYDQSSYTNPFGGGTKLTVLG
modifications: CpG oligo 7-7 (SEQ ID NO:35) with PEG linker attached by an amide bond to the glutamine of the C-terminal Q-tag RPQGFGPP; the general method pools DAR1 fractions (one CpG per antibody)
notes: The oligonucleotide payload is not a protein; also called anti-SIRP-α antibody conjugate; anti-hIgG4 SIRP-α conjugate
